Laboratory results from PMC5733473.

System: SinR (Bacillus subtilis)
Assay: EMSA
Details: EMSA: 15 mM Tris-Cl, 4 mM MOPS-KOH, 15 mM KCl, 50 mM NaCl, 0.8 mM MgCl2, 0.6 mM DTT, 12.5% glycerol, pH 7.8, 1 ug poly(dI-dC) in 16 ul, 20 fmol probe, 28 C …

## PkinB(-75/+10) G-45A
SinR-1 site (upper band)
  binding signal (fold lower affinity): 2

## Rm0 PkinB(-124/-38)
SinR-1 site
  Kd: 50 nM

## PkinB(-31/+104)
SinR-2 site, binding stated
  Kd: > 100 nM

## PkinB(-75/+10) delta5 G-45A
SinR-2 site (SinR-1 not bound)
  Kd: 10 nM

## Fm0 PkinB(-39/+104)
SinR-2 site, binding stated (also given as >100 nM)
  Kd: > 400 nM

## PkinB(-55/+10) WT
SinR-2 site, binding stated
  Kd: > 100 nM

## PkinB(-75/-7) delta5 G-45A
SinR-2 site
  Kd: 10 nM
